The record followed here is patent publication US20230203471A1, “METHOD AND PLATFORM FOR DISRUPTING INTRACELLULAR MICROTUBULES” (National Tsing Hua University, priority 2021, published 2023).

Some results are limits rather than exact numbers.

For assay [1], the target named is intracellular microtubules (MTs).
Assay [2] concerns the target MT-binding domain of ensconsin-cyan fluorescent protein-FKBP-rapamycin binding domain (EMTB-CFP-FRB) (Artificial Sequence). The experiment in a line: FRET live-cell imaging in co-transfected HeLa cells, 100 nM rapamycin.
Assay [3] addresses EMTB-YFP-CIBN (Artificial Sequence). The experiment in a line: live-cell imaging in co-transfected COS7 cells, local blue light.
Assay [4] has the same target. The experiment in a line: live-cell imaging in co-transfected COS7 cells, after blue light.
The subject of assay [5] is EMTB-YFP-CIBN-labeled MTs in COS7 cells. The experiment in a line: Blue-light-induced recruitment of Cry2 proteins onto EMTB-YFP-CIBN-labeled MTs and MT disassembly. To be noted: COS7 cells. It counts as cell-based, African green monkey. The protocol: The procedures of photostimulation are as follows. COS7 cells were plated on poly(d-lysine)-coated coverslips and cultured in six-well plates (Thermo Scientific) for 48 hr. Before imaging, cells were incubated with SPY650-tubulin (1000-fold dilution; Spirochrome) at 37° C. for 1 hr. Local photostimulation was carried out with a fluorescence microscope (Nikon) equipped with a digital micromirror device, polygon 400 (MIGHTEX), and a 488-nm light source. Cells were illuminated with the blue light (5 sec on/1 sec off; 1.6 nW/µm^2) for the indicated duration. The mCherry and SPY650-tubulin were simultaneously imaged during photostimulation using Nikon element AR software.
The inventors next tried to use an optogenetic system to trigger MT disassembly in a sub-cellular region of interest during a specific period of time. Cryptochrome 2 (Cry2) (SEQ ID NO:14) and CIBN (N-terminal 170 amino acids of CIB1) (SEQ ID NO:15), two blue light-sensitive dimerizing partners, were used in our MT-manipulating system. Cry2, which was tagged with the red fluorescent protein mCherry (mCh—Cry2), was rapidly translocated onto EMTB—YFP—CIBN-labeled MTs only in regions illuminated with light (T½ = 34.6 ± 7.58 sec) and dissociated from MTs to the cytosol when the light was off (T½ = 28.2 ± 4.88 sec; see FIGS. 6A and 6B).
FIGS. 6A and 6B show using light to disassemble MTs in a reversible and location-specific manner. In FIG. 6A, COS7 cells co-transfected with EMTB—YFP—CIBN and mCh—Cry2 (red) were incubated with SPY650-tubulin (SPY650-tub) to visualize MTs; the cells were illuminated by blue light within a specified region (indicated by the dotted circle) for the indicated time period; scale bar, 10 µm.
The inventors then used light to control spastin-mediated MT disassembly in a spatially and temporally specific manner. dNSpastin3Q tagged with mCh-Cry2 was co-expressed with EMTB—YFP—CIBN in COS7 cells. MTs were labeled with SPY650-tubulin in these experiments.
FIGS. 6C and 6D show using light to disassemble MTs in a reversible and location-specific manner. In FIG. 6C, COS7 cells co-transfected with EMTB-YFP-CIBN and dNSpastin3Q-mCh—Cry2 were incubated with SPY650-tubulin to visualize MTs; the cells were illuminated by blue light as in FIG. 6A; scale bar, 10 µm. […] Data are shown as the mean ± S.E.M.

The test system of assay [6] is mitotic spindles and intercellular bridges in HeLa cells. The experiment in a line: Disruption of mitotic spindles and intercellular bridges in synchronized HeLa cells. It counts as cell-based. The conditions noted are these: CFP-FRB-MAP4m, rapamycin 100 nM. The protocol: The procedures of cell synchronization are as follows. Plasmid DNA (i.e., DNA construct) transfection was carried out 20-24 hr prior to cell cycle synchronization. For synchronization, HeLa cells were treated with 2 mM thymidine (Sigma) for 16-18 hr to induce arrest at G1/S phase and then were treated with 2.5 ng/ml RO3306 (a selective ATP-competitive inhibitor of CDK1)(Sigma) for 12 hr to induce arrest at G2/M phase. After being washed with warm DMEM, cells were incubated with DMEM and 10% FBS at 37° C., 5% CO2 for 30-60 min to enrich the population of metaphase and telophase cells.
FIGS. 5K to 5N show rapid disruption of mitotic spindles and intercellular bridges. In FIG. 5K, HeLa cells co-transfected with H2B—mCherry (H2B—mCh; a chromosome marker; red), CFP—FRB—MAP4m (a marker of mitotic spindles; blue), and dNSpastin3Q-YFP-FKBP (green) were synchronized in metaphase and treated with rapamycin (100 nM) to induce dNSpastin3Q-YFP-FKBP recruitment to mitotic spindles; scale bar, 10 µm. In FIG. 5L, HeLa cells co-transfected with H2B—mCherry (red), CFP—FRB—MAP4m (intercellular bridges; blue), and dNSpastin3Q-YFP-FKBP (green) were treated with rapamycin (100 nM) to induce dNSpastin3Q-YFP-FKBP recruitment to intercellular bridges; arrows indicate the intercellular bridges; scale bar, 10 µm. […] Data are shown as the mean ± S.E.M. Dotted lines indicate the cell boundaries.

Assay [7] relates to centrosomes in HeLa cells. The experiment in a line: Effect of MT disruption treatment on PACT-labeled centrosomes in HeLa cells. It counts as cell-based. The conditions noted are these: MT disruption treatment for 1 hr. The protocol:
In FIG. 5O, HeLa cells co-transfected with EMTB—CFP—FRB (blue), dNSpastin3Q-YFP-FKBP (green), and PACT-mCh (a centrosomal marker; red) were treated with rapamycin (100 nM) and imaged; dotted lines indicate the cell boundary; insets show higher-magnification images of the centrosome regions; scale bar, 10 µm. […] Data are shown as the mean ± S.E.M.

Assay [8] concerns the target T1, spastin (Mus musculus, UniProt Q9QYY8, K308Q/K309Q/K310Q).
T1 construct: expressed in transfected cells; host or cells: HeLa (CCL-2)
T1 sequence (Q9QYY8 with tags, fused parts or gaps K308Q/K309Q/K310Q): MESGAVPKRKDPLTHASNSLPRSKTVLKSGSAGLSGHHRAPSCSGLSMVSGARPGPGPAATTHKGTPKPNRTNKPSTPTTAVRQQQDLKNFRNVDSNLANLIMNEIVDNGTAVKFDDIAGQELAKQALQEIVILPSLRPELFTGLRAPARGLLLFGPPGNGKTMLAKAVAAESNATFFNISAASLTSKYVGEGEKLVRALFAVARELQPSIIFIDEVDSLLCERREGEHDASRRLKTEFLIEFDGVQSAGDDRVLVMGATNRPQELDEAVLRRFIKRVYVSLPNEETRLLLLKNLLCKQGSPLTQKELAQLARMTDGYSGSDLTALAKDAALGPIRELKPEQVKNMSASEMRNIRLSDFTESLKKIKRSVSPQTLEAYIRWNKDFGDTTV
The experiment in a line: Reversal of MT disruption by spastin inhibition and MT regrowth in HeLa cells. It counts as cell-based. To be noted: regrowth in cytosol (acentrosome) after spastazoline. The protocol: FIGS. 2S to 2U show inhibition of spastin activity reverses MT disruption. In FIG. 2S, HeLa cells co-transfected with EMTB—CFP—FRB (black) and dNSpastin3Q-YFP-FKBP (green) were pre-treated with rapamycin for 28 min to induce acute MT disassembly; spastazoline (10 µM), a spastin inhibitor, was then added to the cultures to halt the MT disruption system; arrows indicate the centrosome-derived MTs; scale bar, 10 µm. […] Data (red) are shown as the mean ± SD. A Student’s t-test was performed to generate the indicated p-value.
Intriguingly, nascent MTs from the fragments derived from dNspastin3Q-mediated cleavage assembled at a polymerization rate of 0.92 ± 0.04 µm/sec, which was slightly slower than the regrowth rate of 1.17 ± 0.07 µm/sec for MTs from centrosomes (see FIG. 2U). […] In particular, microtubule filaments are composed of microtubule molecules. If they are only disassembled into microtubule molecules and the raw materials are still there, they would have the opportunity to quickly assemble them back. But if the microtubule molecules are degraded and the raw materials are gone, they can’t be quickly reassembled. In summary, rapid recruitment of dNSpastin3Q-YFP-FKBP onto MTs efficiently triggered MT disassembly in living cells upon dimerization induction.

Assay [9] has as its system ciliary axonemes and primary cilia in NIH3T3 cells. The experiment in a line: Disruption of primary cilia in serum-starved NIH3T3 cells (live-cell imaging). The format is cell-based, mouse. The conditions noted are these: G0 NIH3T3 cells, CFP-FRB-MAP4m, rapamycin 100 nM. The protocol:
The procedures of cell culture and transfection are as follows. African green monkey kidney cell line COS7 (CRL-1651), cervical cancer cell line HeLa (CCL-2), human osteosarcoma cell line U2OS (HTB-96), human embryonic kidney cell line HEK293T (CRL-3216), and mouse embryonic fibroblasts NIH3T3 cells (CRL-1658) were maintained at 37° C., 5% CO2, and 95% humidity in Dulbecco’s modified Eagle’s medium (DMEM) supplemented with 10% fetal bovine serum (FBS), and penicillin and streptomycin (Corning). To induce ciliogenesis, NIH3T3 cells were serum starved for 24 hr. COS7 cells were transfected with plasmid DNAs by using TurboFect transfection reagents (Thermo Fisher). HeLa, U2OS, HEK293T, and NIH3T3 cells were transfected with FuGENE HD (Promega). Transfected cells were incubated for 24-48 hr prior to imaging and other experiments.
The procedures of live-cell imaging are as follows. Live transfected cells cultured on poly(d-lysine)-coated glass coverslips (Hecht Assistent) were treated with either 100 nM rapamycin for rapid induction of protein dimerization and translocation or MT-targeting agents (10 µM nocodazole or 500 µM colchicine) during imaging. Live-cell imaging was conducted on a Nikon T1 inverted fluorescence microscope (Nikon) with a 60× oil objective (Nikon), a Prime camera (Photometrics), and 37° C., 5% CO2 heat stage (Live Cell Instrument). […]

Sequence of EMTB-YFP-CIBN (Artificial Sequence) (chain, as listed by the source): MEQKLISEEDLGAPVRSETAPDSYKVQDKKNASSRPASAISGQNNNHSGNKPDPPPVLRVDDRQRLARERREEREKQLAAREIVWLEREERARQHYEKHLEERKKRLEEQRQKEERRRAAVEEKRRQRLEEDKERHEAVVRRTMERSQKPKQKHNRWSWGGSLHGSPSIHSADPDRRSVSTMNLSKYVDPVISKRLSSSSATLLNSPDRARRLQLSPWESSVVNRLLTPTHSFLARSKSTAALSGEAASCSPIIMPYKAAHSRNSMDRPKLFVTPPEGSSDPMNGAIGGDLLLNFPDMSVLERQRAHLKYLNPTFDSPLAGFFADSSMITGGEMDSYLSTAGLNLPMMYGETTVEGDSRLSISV
Sequence of MT-binding domain of ensconsin-cyan fluorescent protein-FKBP-rapamycin binding domain (EMTB-CFP-FRB) (Artificial Sequence) (chain, as listed by the source): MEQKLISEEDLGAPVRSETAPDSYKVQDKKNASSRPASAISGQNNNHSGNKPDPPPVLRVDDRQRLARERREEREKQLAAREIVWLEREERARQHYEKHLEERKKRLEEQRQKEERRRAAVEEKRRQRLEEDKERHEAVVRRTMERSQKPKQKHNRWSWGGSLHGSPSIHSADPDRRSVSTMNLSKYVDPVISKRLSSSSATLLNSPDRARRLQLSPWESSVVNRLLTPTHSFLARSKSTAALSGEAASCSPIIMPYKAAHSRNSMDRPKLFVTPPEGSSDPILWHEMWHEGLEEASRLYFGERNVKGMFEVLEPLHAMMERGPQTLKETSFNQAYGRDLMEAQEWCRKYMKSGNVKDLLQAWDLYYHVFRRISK

The molecule “dNSpastin-YFP-FKBP-C2 domain of Lactadherin (dNSpastin-YFP-FKBP-C2Lact) (enzyme)” yielded a half time of MT disruption (MT filament area) in assay [1] of 53.1 min. For the same molecule, the T½ of translocation in assay [2] was 55.4 s.

B1: Cry2 tagged with the red fluorescent protein mCherry (mCh-Cry2) (protein)
chain: MKMDKKTIVWFRRDLRIEDNPALAAAAHEGSVFPVFIWCPEEEGQFYPGRASRWWMKQSLAHLSQSLKALGSDLTLIKTHNTISAILDCIRVTGATKVVFNHLYDPVSLVRDHTVKEKLVERGISVQSYNGDLLYEPWEIYCEKGKPFTSFNSYWKKCLDMSIESVMLPPPWRLMPITAAAEAIWACSIEELGLENEAEKPSNALLTRAWSPGWSNADKLLNEFIEKQLIDYAKNSKKVVGNSTSLLSPYLHFGEISVRHVFQCARMKQIIWARDKNSEGEESADLFLRGIGLREYSRYICFNFPFTHEQSLLSHLRFFPWDADVDKFKAWRQGRTGYPLVDAGMRELRATGWMHNRIRVIVSSFAVKFLLLPWKWGMKYFWDTLLDADLECDILGWQYISGSIPDGHELDRLDNPALQGAKYDPEGEYIRQWLPELARLPTEWIHHPWDAPLTVLKASGVELGTNYAKPIVDIDTARELLAKAISRTREAQIMIGAA
Turning to B1, the T½ of translocation onto MTs under light in assay [3] was 34.6 s. The molecule also returned a T½ of dissociation from MTs when the light was off in assay [4] of 28.2 s. The “T½ of translocation onto EMTB-YFP-CIBN-labeled MTs in illuminated regions” value in [5] (blue light on) stood at 34.6 ± 7.58 s. For the same molecule, the “T½ of dissociation from MTs to the cytosol” value in assay [5] (light off) stood at 28.2 ± 4.88 s. Further, in [5] (local blue light illumination, SPY650-tubulin), the “light-induced MT disassembly” value is on record as “did not lead to MT disassembly”.

B2: dNSpastin3Q: truncated spastin with three residues mutated to three glutamines, SEQ ID NO:6; used as tagged fusions (protein)
chain: T1 sequence (Q9QYY8 with tags, fused parts or gaps K308Q/K309Q/K310Q)
modifications: dNSpastin3Q
notes: used as tagged fusions
For the molecule B2, the “disruption of mitotic spindles and intercellular bridges” value in assay [6] was “quickly disrupted these MT-based structures”. Moreover, the disruption of centrosomes entry in assay [7] was “did not disrupt centrosomes”. In assay [8], the “polymerization rate of nascent MTs from fragments derived from cleavage” value turned out to be 0.92 ± 0.04 µm/sec. Besides, the “time to disassembly of axonemes and primary cilia” value in [9] is at most 15 min.
